Test results taken from US20130004522A1, “PHOTOTRIGGERED NANOPARTICLES FOR CELL AND TISSUE TARGETING” (priority 2009, published 2013).
Where no end group is shown, it is not given here. The star is where a group is joined. DMNB = 4,5-dimethoxy-2-nitrobenzyl photo-removable caging group, COc1cc(C*)c([N+](=O)[O-])cc1OC

Columns and labels:
[1] = biological target: integrin β1 (Homo sapiens, UniProt P05556); conditions: previously shown; cited from earlier work
[2] = Un-caging of the caged peptide targeter in solution by HPLC-UV; type: physicochemical; conditions: ten seconds post illumination, retention time shifts to that of the non-caged targeter
Description: HPLC assays were performed on an HP 1100 HPLC system. Samples were injected in 50-μl volumes onto a C18 column. The column was eluted with an aqueous solution at 1 ml/min. The peptides were detected by a UV detector with absorbance wavelength set at 230 nm.
In order to determine the un-caging ability of the targeter (e.g., the peptide GGGGY(DMNB)IGSR—NH2 (SEQ ID NO: 2)) leading to its transformation to the active state, solutions of non-caged peptide (GGGGYIGSR-NH2) (SEQ ID NO: 2), or caged peptides subjected or not subjected to 1 min of illumination were evaluated by HPLC-UV. Retention time in the column of the non-caged targeter was ˜20 min (FIG. 3A) while that of the non-illuminated caged targeter was longer (˜30 min, FIG. 3B) due to the caging group existence which increases the hydrophobicity of the peptide. Ten seconds post illumination a shift in the retention time had occurred and the peptide had exited the column after ˜20 min (FIG. 3C).

Sequence of integrin β1 (P05556 21-798, species assumed): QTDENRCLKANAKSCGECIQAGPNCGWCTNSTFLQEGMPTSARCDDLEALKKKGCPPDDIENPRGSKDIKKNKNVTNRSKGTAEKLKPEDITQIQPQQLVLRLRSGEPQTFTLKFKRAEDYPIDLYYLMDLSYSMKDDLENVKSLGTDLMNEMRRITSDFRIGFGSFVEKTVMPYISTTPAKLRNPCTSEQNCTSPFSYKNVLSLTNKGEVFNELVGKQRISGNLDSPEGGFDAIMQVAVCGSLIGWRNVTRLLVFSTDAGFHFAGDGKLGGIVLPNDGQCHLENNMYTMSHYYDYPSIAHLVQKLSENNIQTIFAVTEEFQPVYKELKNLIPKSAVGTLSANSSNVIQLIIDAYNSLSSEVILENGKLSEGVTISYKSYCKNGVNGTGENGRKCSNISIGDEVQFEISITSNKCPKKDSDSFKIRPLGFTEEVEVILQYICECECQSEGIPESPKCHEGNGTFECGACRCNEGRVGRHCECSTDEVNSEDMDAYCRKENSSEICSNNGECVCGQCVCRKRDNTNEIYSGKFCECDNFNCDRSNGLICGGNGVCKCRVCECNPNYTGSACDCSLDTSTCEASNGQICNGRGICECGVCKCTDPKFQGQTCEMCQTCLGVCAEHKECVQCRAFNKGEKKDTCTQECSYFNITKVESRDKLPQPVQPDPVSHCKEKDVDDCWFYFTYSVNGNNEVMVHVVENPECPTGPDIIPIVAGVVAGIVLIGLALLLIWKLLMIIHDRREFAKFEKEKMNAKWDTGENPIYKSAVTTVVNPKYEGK

In the case of CDPGYIGSR, the “cell adhesion and migration” value [1] is listed as “promote cell adhesion and migration”.
With “GGGGY(DMNB)IGSR—NH2 (GGGGY(DMNB)IGSR-NH2; N-terminus assumed; SMILES CC[C@H](C)[C@H](NC(=O)[C@H](Cc1ccc(OCc2cc(OC)c(OC)cc2[N+](=O)[O-])cc1)NC(=O)CNC(=O)CNC(=O)CNC(=O)CN)C(=O)NCC(=O)N[C@@H](CO)C(=O)N[C@@H](CCCNC(=N)N)C(N)=O)” the “release of the caging group from the peptide after illumination” value [2] was “quick release of the caging group”.
In the case of YIGSR-NH2, the “cell adhesion and migration” value [1] is given as “promote cell adhesion and migration”.
